{"source": "IntAct's records for PubMed 22778397", "parents": {"B1": {"name": "RNA-binding protein FUS (Homo sapiens), P35637 (parent)", "chain": "MASNDYTQQATQSYGAYPTQPGQGYSQQSSQPYGQQSYSGYSQSTDTSGYGQSSYSSYGQSQNTGYGTQSTPQGYGSTGGYGSSQSSQSSYGQQSSYPGYGQQPAPSSTSGSYGSSSQSSSYGQPQSGSYSQQPSYGGQQQSYGQQQSYNPPQGYGQQNQYNSSSGGGGGGGGGGNYGQDQSSMSSGGGSGGGYGNQDQSGGGGSGGYGQQDRGGRGRGGSGGGGGGGGGGYNRSSGGYEPRGRGGGRGGRGGMGGSDRGGFNKFGGPRDQGSRHDSEQDNSDNNTIFVQGLGENVTIESVADYFKQIGIIKTNKKTGQPMINLYTDRETGKLKGEATVSFDDPPSAKAAIDWFDGKEFSGNPIKVSFATRRADFNRGGGNGRGGRGRGGPMGRGGYGGGGSGGGGRGGFPSGGGGGGGQQRAGDWKCPNPTCENMNFSWRNECNQCKAPKPDGPGGGPGGSHMGGNYGDDRRGGRGGYDRGGYRGRGGDRGGFRGGRGGGDRGGFGPGKMDSRGEHRQDRRERPY"}}}
{"variants_of": "B1", "conditions": "with TNPO1, Q92973-2"}
{"variant": "R522A", "effect of a mutation on the interaction": "decreasing interaction strength"}
{"variant": "P525A", "effect of a mutation on the interaction": "decreasing interaction strength"}
{"variant": "P525L", "effect of a mutation on the interaction": "decreasing interaction strength"}
{"variant": "R524S", "effect of a mutation on the interaction": "decreasing interaction strength"}
{"variant": "R521C", "effect of a mutation on the interaction": "decreasing interaction strength"}
{"variant": "P508A;G509A;K510A;M511A", "effect of a mutation on the interaction": "decreasing interaction strength"}
{"variant": "P525A;Y526A", "effect of a mutation on the interaction": "decreasing interaction strength"}
{"variant": "Y526A", "effect of a mutation on the interaction": "decreasing interaction strength"}
{"variant": "H517Q", "effect of a mutation on the interaction": "decreasing interaction strength"}
{"variant": "R521A;R522A", "effect of a mutation on the interaction": "decreasing interaction strength"}
{"variant": "R518A", "effect of a mutation on the interaction": "decreasing interaction strength"}
{"variant": "R514A;R518A", "effect of a mutation on the interaction": "decreasing interaction strength"}
{"variant": "R514A;R518A;R521A;R522A", "effect of a mutation on the interaction": "disrupting interaction strength"}
